Data reported in article PMC5902578.

Key:
[1] = target: yeast Hsp90 W300A (S. cerevisiae) (UniProt P02829); assay: AUC; as a1, with 2 mM ATPγS
[2] = target: yeast Hsp90 W300E (S. cerevisiae) (UniProt P02829); assay: AUC; as a1, with 2 mM ATPγS
[3] = target: yeast Hsp90 W300A (S. cerevisiae) (UniProt P02829); assay: AUC; as a1, with 2 mM AMP–PNP
[4] = target: yeast Hsp90 W300E (S. cerevisiae) (UniProt P02829); assay: AUC; as a1, with 2 mM AMP–PNP

Measured: percent of labelled GR-LBD in complex

human glucocorticoid receptor ligand binding domain (GR-LBD) (domain or fragment)
< 5%: all assays above
